This note sets out measurements from patent publication US20240060059A1.

Assay in all cases: cell-based or functional assay
The target in assay [1] is spHT 145 C-terminal fragment fused to FRB or FKBP.
The target in a further assay is [196-297]-FRB (UniProt P42345).
Assay [2] deals with spHT 80 C-terminal fragment fused to FRB or FKBP.
Assay [3] concerns the target spHT 180 C-terminal fragment fused to FRB or FKBP.
The target in assay [4] is spHT 157 C-terminal fragment fused to FRB or FKBP.
The target in assay [5] is spHT 133 C-terminal fragment fused to FRB or FKBP.

“And” between values parts separate entries of the source, which are not always exact repeats. Equal entries are not always repeated.

UniProt P42345, sequence (P42345 other isoform, or with tags, fused parts or gaps limits assumed): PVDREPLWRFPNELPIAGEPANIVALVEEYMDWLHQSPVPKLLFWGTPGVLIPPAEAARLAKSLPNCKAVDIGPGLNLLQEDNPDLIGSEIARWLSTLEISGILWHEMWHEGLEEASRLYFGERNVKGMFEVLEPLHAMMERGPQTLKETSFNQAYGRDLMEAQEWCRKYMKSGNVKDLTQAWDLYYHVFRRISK

Take “spHT 145 N-terminal fragment fused to FRB or FKBP”: in assay [1], the fold fluorescence signal increase (JF646 ligand) in the presence of 50 nM rapamycin, E. coli lysates was greater than 2 fold.

In the case of “[1-195]-FKBP (from UniProt P62942 2-108)”, the fold fluorescence signal increase (JF646 ligand) in the presence of 50 nM rapamycin, E. coli lysates in assay [196-297]-FRB was 4.7 fold and > 2 fold. With “spHT 80 N-terminal fragment fused to FRB or FKBP”, in assay [2], the fold fluorescence signal increase (JF646 ligand) in the presence of 50 nM rapamycin, E. coli lysates is greater than 2 fold. Regarding “spHT 180 N-terminal fragment fused to FRB or FKBP”, the fold fluorescence signal increase (JF646 ligand) in the presence of 50 nM rapamycin, E. coli lysates in assay [3] was greater than 2 fold. Regarding “spHT 157 N-terminal fragment fused to FRB or FKBP”, the fold fluorescence signal increase (JF646 ligand) in the presence of 50 nM rapamycin, E. coli lysates in assay [4] was greater than 2 fold.

Turning to “spHT 133 N-terminal fragment fused to FRB or FKBP”, the fold fluorescence signal increase (JF646 ligand) in the presence of 50 nM rapamycin, E. coli lysates in assay [5] was greater than 2 fold.
